Reference: patent US20260167699A1 (Chugai, published 2026)

B1: GpH7-A5/GpH7-B3 variant S324_20W/GpL16-k0 (antibody, human IgG1, kappa)
heavy 1: not shown
heavy 2: not shown
light: DIVMTQSPLSLPVTPGEPASISCQASESLVHSNRNTYLHWYLQKPGQSPQLLIYKVSNRFSGVPDRFSGSGSGTDFTLKISRVEAEDVGVYYCSQNTHVPPTFGQGTKVEIERTVAAPSVFIFPPSDEQLKSGTASVVCLLNNFYPREAKVQWKVDNALQSGNSQESVTEQDSKDSTYSLSSTLTLSKADYEKHKVYACEVTHQGLSSPVTKSFNRGEC
notes: copies: 1 + 1 + 2
B2: GpH7-A5/GpH7-B3 variant S337_01G/GpL16-k0 (antibody, human IgG1, kappa)
heavy 1: not shown
heavy 2: not shown
light: B1 light
notes: copies: 1 + 1 + 2
B3: GpH7-A5/GpH7-B3 variant S337_02A/GpL16-k0 (antibody, human IgG1, kappa)
heavy 1: not shown
heavy 2: not shown
light: B1 light
notes: copies: 1 + 1 + 2
B4: GpH7-A5/GpH7-B3 variant S337_03V/GpL16-k0 (antibody, human IgG1, kappa)
heavy 1: not shown
heavy 2: not shown
light: B1 light
notes: copies: 1 + 1 + 2
B5: GpH7-A5/GpH7-B3 variant S337_04F/GpL16-k0 (antibody, human IgG1, kappa)
heavy 1: not shown
heavy 2: not shown
light: B1 light
notes: copies: 1 + 1 + 2
B6: GpH7-A5/GpH7-B3 variant S337_06M/GpL16-k0 (antibody, human IgG1, kappa)
heavy 1: not shown
heavy 2: not shown
light: B1 light
notes: copies: 1 + 1 + 2
B7: GpH7-A5/GpH7-B3 variant S337_07I/GpL16-k0 (antibody, human IgG1, kappa)
heavy 1: not shown
heavy 2: not shown
light: B1 light
notes: copies: 1 + 1 + 2
B8: GpH7-A5/GpH7-B3 variant S337_08L/GpL16-k0 (antibody, human IgG1, kappa)
heavy 1: not shown
heavy 2: not shown
light: B1 light
notes: copies: 1 + 1 + 2
B9: GpH7-A5/GpH7-B3 variant S337_09D/GpL16-k0 (antibody, human IgG1, kappa)
heavy 1: not shown
heavy 2: not shown
light: B1 light
notes: copies: 1 + 1 + 2
B10: GpH7-A5/GpH7-B3 variant S337_10E/GpL16-k0 (antibody, human IgG1, kappa)
heavy 1: not shown
heavy 2: not shown
light: B1 light
notes: copies: 1 + 1 + 2
B11: GpH7-A5/GpH7-B3 variant S337_11K/GpL16-k0 (antibody, human IgG1, kappa)
heavy 1: not shown
heavy 2: not shown
light: B1 light
notes: copies: 1 + 1 + 2
B12: GpH7-A5/GpH7-B3 variant S337_12R/GpL16-k0 (antibody, human IgG1, kappa)
heavy 1: not shown
heavy 2: not shown
light: B1 light
notes: copies: 1 + 1 + 2
B13: GpH7-A5/GpH7-B3 variant S337_14T/GpL16-k0 (antibody, human IgG1, kappa)
heavy 1: not shown
heavy 2: not shown
light: B1 light
notes: copies: 1 + 1 + 2
B14: GpH7-A5/GpH7-B3 variant S337_15Y/GpL16-k0 (antibody, human IgG1, kappa)
heavy 1: not shown
heavy 2: not shown
light: B1 light
notes: copies: 1 + 1 + 2
B15: GpH7-A5/GpH7-B3 variant S337_16H/GpL16-k0 (antibody, human IgG1, kappa)
heavy 1: not shown
heavy 2: not shown
light: B1 light
notes: copies: 1 + 1 + 2
B16: GpH7-A5/GpH7-B3 variant S337_18N/GpL16-k0 (antibody, human IgG1, kappa)
heavy 1: not shown
heavy 2: not shown
light: B1 light
notes: copies: 1 + 1 + 2
B17: GpH7-A5/GpH7-B3 variant S337_19Q/GpL16-k0 (antibody, human IgG1, kappa)
heavy 1: not shown
heavy 2: not shown
light: B1 light
notes: copies: 1 + 1 + 2
B18: GpH7-A5/GpH7-B3 variant S337_20W/GpL16-k0 (antibody, human IgG1, kappa)
heavy 1: not shown
heavy 2: not shown
light: B1 light
notes: copies: 1 + 1 + 2
B19: GpH7-A5/GpH7-B3 variant T335_01G/GpL16-k0 (antibody, human IgG1, kappa)
heavy 1: not shown
heavy 2: not shown
light: B1 light
notes: copies: 1 + 1 + 2
B20: GpH7-A5/GpH7-B3 variant T335_02A/GpL16-k0 (antibody, human IgG1, kappa)
heavy 1: not shown
heavy 2: not shown
light: B1 light
notes: copies: 1 + 1 + 2
B21: GpH7-A5/GpH7-B3 variant T335_03V/GpL16-k0 (antibody, human IgG1, kappa)
heavy 1: not shown
heavy 2: not shown
light: B1 light
notes: copies: 1 + 1 + 2
B22: GpH7-A5/GpH7-B3 variant T335_04F/GpL16-k0 (antibody, human IgG1, kappa)
heavy 1: not shown
heavy 2: not shown
light: B1 light
notes: copies: 1 + 1 + 2
B23: GpH7-A5/GpH7-B3 variant T335_05P/GpL16-k0 (antibody, human IgG1, kappa)
heavy 1: not shown
heavy 2: not shown
light: B1 light
notes: copies: 1 + 1 + 2
B24: GpH7-A5/GpH7-B3 variant T335_06M/GpL16-k0 (antibody, human IgG1, kappa)
heavy 1: not shown
heavy 2: not shown
light: B1 light
notes: copies: 1 + 1 + 2
B25: GpH7-A5/GpH7-B3 variant T335_07I/GpL16-k0 (antibody, human IgG1, kappa)
heavy 1: not shown
heavy 2: not shown
light: B1 light
notes: copies: 1 + 1 + 2
B26: GpH7-A5/GpH7-B3 variant T335_08L/GpL16-k0 (antibody, human IgG1, kappa)
heavy 1: not shown
heavy 2: not shown
light: B1 light
notes: copies: 1 + 1 + 2
B27: GpH7-A5/GpH7-B3 variant T335_09D/GpL16-k0 (antibody, human IgG1, kappa)
heavy 1: not shown
heavy 2: not shown
light: B1 light
notes: copies: 1 + 1 + 2
B28: GpH7-A5/GpH7-B3 variant T335_10E/GpL16-k0 (antibody, human IgG1, kappa)
heavy 1: not shown
heavy 2: not shown
light: B1 light
notes: copies: 1 + 1 + 2
B29: GpH7-A5/GpH7-B3 variant T335_11K/GpL16-k0 (antibody, human IgG1, kappa)
heavy 1: not shown
heavy 2: not shown
light: B1 light
notes: copies: 1 + 1 + 2
B30: GpH7-A5/GpH7-B3 variant T335_12R/GpL16-k0 (antibody, human IgG1, kappa)
heavy 1: not shown
heavy 2: not shown
light: B1 light
notes: copies: 1 + 1 + 2

These binders were tested against T1, FcγRIIIa (human, UniProt P08637 17-208) (assay: SPR (Biacore);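 note: antibody variants captured on an SPR sensor chip, with FcγRIIIa passed over as analyte in HBS-EP+ buffer at 25 °C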).
T1 construct: extracellular domain; also called 3a; FcγRIIIa extracellular domain
T1 sequence (P08637 other isoform, or with tags, fused parts or gaps): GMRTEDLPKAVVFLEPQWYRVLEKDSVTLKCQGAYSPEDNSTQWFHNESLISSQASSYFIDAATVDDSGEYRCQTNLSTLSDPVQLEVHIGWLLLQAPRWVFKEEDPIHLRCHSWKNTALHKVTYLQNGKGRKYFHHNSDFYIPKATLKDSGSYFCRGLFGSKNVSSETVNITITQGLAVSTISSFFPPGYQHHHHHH
In the case of B1, the “He/Con 3a” value is reported as 111 % of GpH7-A5/GpH7-B3/GpL16-k0. B2 was tested, and the “He/Con 3a” value was 95.2 % of GpH7-A5/GpH7-B3/GpL16-k0. For B3, the “He/Con 3a” value was 92.4 % of GpH7-A5/GpH7-B3/GpL16-k0. For B4, the “He/Con 3a” value was 87.1 % of GpH7-A5/GpH7-B3/GpL16-k0. With B5 the “He/Con 3a” value was 94.4 % of GpH7-A5/GpH7-B3/GpL16-k0. B6 was tested, and the “He/Con 3a” value was 89.7 % of GpH7-A5/GpH7-B3/GpL16-k0. For B7, the “He/Con 3a” value was 88.3 % of GpH7-A5/GpH7-B3/GpL16-k0. In the case of B8, the “He/Con 3a” value is reported as 90.2 % of GpH7-A5/GpH7-B3/GpL16-k0. With B9 the “He/Con 3a” value was 102 % of GpH7-A5/GpH7-B3/GpL16-k0. For B10, the “He/Con 3a” value was 97.8 % of GpH7-A5/GpH7-B3/GpL16-k0. With B11 the “He/Con 3a” value was 80.1 % of GpH7-A5/GpH7-B3/GpL16-k0. With B12 the “He/Con 3a” value was 92.7 % of GpH7-A5/GpH7-B3/GpL16-k0. With B13 the “He/Con 3a” value was 94 % of GpH7-A5/GpH7-B3/GpL16-k0. With B14 the “He/Con 3a” value was 94.9 % of GpH7-A5/GpH7-B3/GpL16-k0. With B15 the “He/Con 3a” value was 100 % of GpH7-A5/GpH7-B3/GpL16-k0. B16 was tested, and the “He/Con 3a” value was 96.9 % of GpH7-A5/GpH7-B3/GpL16-k0. For B17, the “He/Con 3a” value was 91.2 % of GpH7-A5/GpH7-B3/GpL16-k0. In the case of B18, the “He/Con 3a” value is reported as 93.8 % of GpH7-A5/GpH7-B3/GpL16-k0. In the case of B19, the “He/Con 3a” value is reported as 95.1 % of GpH7-A5/GpH7-B3/GpL16-k0. For B20, the “He/Con 3a” value was 90.9 % of GpH7-A5/GpH7-B3/GpL16-k0. In the case of B21, the “He/Con 3a” value is reported as 96.3 % of GpH7-A5/GpH7-B3/GpL16-k0. With B22 the “He/Con 3a” value was 91.7 % of GpH7-A5/GpH7-B3/GpL16-k0. In the case of B23, the “He/Con 3a” value is reported as 100 % of GpH7-A5/GpH7-B3/GpL16-k0. With B24 the “He/Con 3a” value was 97 % of GpH7-A5/GpH7-B3/GpL16-k0. With B25 the “He/Con 3a” value was 102 % of GpH7-A5/GpH7-B3/GpL16-k0. For B26, the “He/Con 3a” value was 97.8 % of GpH7-A5/GpH7-B3/GpL16-k0. For B27, the “He/Con 3a” value was 103 % of GpH7-A5/GpH7-B3/GpL16-k0. B28 was tested, and the “He/Con 3a” value was 102 % of GpH7-A5/GpH7-B3/GpL16-k0. With B29 the “He/Con 3a” value was 91.7 % of GpH7-A5/GpH7-B3/GpL16-k0. In the case of B30, the “He/Con 3a” value is reported as 93.1 % of GpH7-A5/GpH7-B3/GpL16-k0.
